Data on 7 molecules can be found in patent publication US6051381, “Prokaryotic two-hybrid system” (dated 2000).

Assay [1] deals with Fos-LexA (E. coli; mouse) (UniProt P01101). Kind of assay: E. coli two-hybrid, lacZ repression; reporter plasmid P3IHFLexAOpimpX.
Assay [2] has as its target Jun-LexADNA (mouse; E. coli) (UniProt P05627). Kind of assay: E. coli two-hybrid, lacZ repression; reporter construct P3IHFLexAOpmH.
The target is the same in assay [3]. Kind of assay: E. coli two-hybrid, lacZ repression; reporter construct P3IHFLexAOpX.
The target is the same in assay [4]. Kind of assay: E. coli two-hybrid, lacZ repression; reporter construct P3LexAOpH.
The target is the same in assay [5]. In words: E. coli two-hybrid, lacZ repression; reporter construct P3.
Assay [6] has the same target. In words: E. coli two-hybrid, lacZ repression; reporter construct P3LexAOpX.
The target is the same in assay [7]. In words: E. coli two-hybrid, lacZ repression; reporter construct P3IHFLexAOpH.
Assay [8] deals with E6-LexA (E. coli; HPV) (UniProt P0A7C2). In words: E. coli two-hybrid, lacZ repression; 0.5 mM IPTG, 50 ng/ml anhydrotetracycline; reporter P3IHFLexAimpX.
Assay [9] concerns the target zip-LexADNA (E. coli). In words: E. coli two-hybrid, lacZ repression; reporter construct P3LexAOpX.
Assay [10] addresses zip-LexADNA (E. coli). In words: E. coli two-hybrid, lacZ repression; reporter construct P3IHFLexAOpmH.
Assay [11] deals with E6-LexA (E. coli; HPV) (UniProt P0A7C2). Kind of assay: E. coli two-hybrid, lacZ repression; non-interacting control pair; reporter P3IHFLexAimpX.
Assay [12] addresses zip-LexADNA (E. coli). In words: E. coli two-hybrid, lacZ repression; reporter construct P3.
Assay [13] concerns the target zip-LexADNA (E. coli). Kind of assay: E. coli two-hybrid, lacZ repression; reporter construct P3LexAOpH.
Assay [14] deals with zip-LexADNA (E. coli). In words: E. coli two-hybrid, lacZ repression; reporter construct P3IHFLexAOpX.
The target of assay [15] is zip-LexADNA (E. coli). Kind of assay: E. coli two-hybrid, lacZ repression; reporter construct P3IHFLexAOpH.
The next assay concerns the target T1, wild-type AraC (E. coli, UniProt P0A9E0).
T1 sequence: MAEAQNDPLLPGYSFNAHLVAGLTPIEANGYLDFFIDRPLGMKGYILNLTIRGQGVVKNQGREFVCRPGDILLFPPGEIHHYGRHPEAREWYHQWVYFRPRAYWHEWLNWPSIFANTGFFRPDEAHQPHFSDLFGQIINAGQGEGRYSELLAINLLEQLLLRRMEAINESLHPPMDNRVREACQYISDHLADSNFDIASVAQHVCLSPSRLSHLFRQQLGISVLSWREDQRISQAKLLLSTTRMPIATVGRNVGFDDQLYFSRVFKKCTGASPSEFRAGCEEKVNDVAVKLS
In words: E. coli two-hybrid, lacZ repression, reporter P3IHFLexAOpimpX.

As to Jun-AraC (from UniProt P05627), the repression ratio in assay [1] was determined as 11 fold.

For the molecule AraCDNA, the values for the repression ratio in assay [2] and in [3] were 1.09 and 1.1, respectively.

On to Fos-AraCDNA (from UniProt P01101), for which the repression ratio turned out to be 2 in assay [4]; 1.1 in [5]; 4.2 in assay [3]; 2.3 in assay [6]; 1.9 in assay [7].

For E6AP-AraCDNA (from UniProt Q05086), the repression ratio with E6-LexA (E. coli; HPV) [8] is greater than 30 fold.

B1: AraCDNA (protein)
chain: ESLHPPMDNRVREACQYISDHLADSNFDIASVAQHVCLSPSRLSHLFRQQLGISVLSWREDQRISQAKLLLSTTRMPIATVGRNVGFDDQLYFSRVFKKCTGASPSEFRAGCEEKVNDVAVKLS
Turning to B1, the repression ratio in the assay with zip-LexADNA (E. coli) [9] is 1.1; with zip-LexADNA (E. coli) [10], 0.9; in the assay with E6-LexA (E. coli; HPV) [11] it was 1.5; with zip-LexADNA (E. coli) [12] it was 1.2; with zip-LexADNA (E. coli) [13], 1; in the assay with zip-LexADNA (E. coli) [14], 1.2. For the same molecule, in the assay with zip-LexADNA (E. coli) [15], the repression ratio came to 1.1.

B2: wild-type AraC (protein)
chain: MAEAQNDPLLPGYSFNAHLVAGLTPIEANGYLDFFIDRPLGMKGYILNLTIRGQGVVKNQGREFVCRPGDILLFPPGEIHHYGRHPEAREWYHQWVYFRPRAYWHEWLNWPSIFANTGFFRPDEAHQPHFSDLFGQIINAGQGEGRYSELLAINLLEQLLLRRMEAINESLHPPMDNRVREACQYISDHLADSNFDIASVAQHVCLSPSRLSHLFRQQLGISVLSWREDQRISQAKLLLSTTRMPIATVGRNVGFDDQLYFSRVFKKCTGASPSEFRAGCEEKVNDVAVKLS
For the molecule B2, the repression ratio with zip-LexADNA (E. coli) [9] was determined as 1.2; with zip-LexADNA (E. coli) [10], 1.06; in the assay with zip-LexADNA (E. coli) [12] it was 1.2; with zip-LexADNA (E. coli) [13] it was 1.1; in the assay with zip-LexADNA (E. coli) [14] it was 1.2; with zip-LexADNA (E. coli) [15], 1.

B3: Fos-LexA (other)
chain: RGKVEQLSPEEEEKRRIRRERNKMAAAKCRNRRRELTDTLQAETDQLEDEKSALQTEIANLLKEKEKLEFILAAHRPACKIPDDLGFPEEMSV
For B3, in the assay with wild-type AraC, the binding result is “no binding”.
